Biological target: Mutant H2A.Z^AP3-YFP (mouse)
Assay: co-IP; immunoprecipitation with GFP antibodies of the YFP-tagged histone from dox-induced transgenic ESCs (endogenous H2A.Z knockdown background), immunoblot of the partners; uninduced cells (No DOX) as negative controls; densitometry in ImageJ

fold of NAP1L1 bound against H2A.Z^WT: < 2 fold
B1: NAP1L1 (natural protein)
chain: MADIDNKEQSELDQDLEDVEEVEEEETGEETKIKARQLTVQMMQNPQILAALQERLDGLVDTPTGYIESLPKVVKRRVNALKNLQVKCAQIEAKFYEEVHDLERKYAVLYQPLFDKRFEIINAIYEPTEEECEWKPDEEDEVSEELKEKAKIEDEKKDEEKEDPKGIPEFWLTVFKNVDLLSDMVQEHDEPILKHLKDIKVKFSDAGQPMSFVLEFHFEPNDYFTNEVLTKTYRMRSEPDDSDPFSFDGPEIMGCTGCQIDWKKGKNVTLKTIKKKQKHKGRGTVRTVTKTVSNDSFFNFFAPPEVPENGDLDDDAEAILAADFEIGHFLRERIIPRSVLYFTGEAIEDDDDDYDEEGEEADEEGEEEGDEENDPDYDPKKDQNPAECKQQ

Reference: article PMC3749939
